Reference: paper PMC11044165, “Two Novel [^68Ga]Ga-Labeled Radiotracers Based on Metabolically Stable [Sar^11]RM26 Antagonistic Peptide for Diagnostic Positron Emission Tomography Imaging of GRPR-Positive Prostate Cancer” (ACS Omega, 2024)

How the values were obtained:
[1] = test system: PC-3 bearing mice; conditions: mouse, in vivo; cited from earlier work
Description: It is quite interesting to compare the biodistribution results for the two new conjugates with their counterparts without the Gly^11/Sar^11 substitution, i.e., [^68Ga]Ga-NOTA-PEG2-RM26 and [^68Ga]Ga-NODAGA-PEG2-RM26, previously reported.[24] Despite the similar amounts of peptide and activity injected, the biodistribution data for [^68Ga]Ga-NOTA-PEG2-RM26 and [^68Ga]Ga-NODAGA-PEG2-RM26, in PC-3 bearing mice, are reported only for […].[24] Under these conditions, we are going to focus on a comparison with the data for 3 h pi.

[2] = in vivo; cited from earlier work
Source text: In agreement with their preclinical data, SUV values for the pancreas for [^68Ga]Ga-SB3 and [^68Ga]Ga-RM2 were around 40, while for [^68Ga]Ga-PEG3-RM26, this value was 2-fold lower.

[3] = in vivo; parameters: species or system BALB/C nu/nu mice; conditions: BALB/C nu/nu, mouse, iv, total radioactivity
Description: In vivo studies were conducted in accordance with European guidelines on laboratory animal protection and the Declaration of Helsinki. For the biodistribution and PET/CT experiments BALB/C nu/nu mice were used and the protocols were approved by the ethics committee for animal research in Uppsala (Sweden); permit number 00473/21.
After acclimatization, animals were subcutaneously injected on the right hind leg with a suspension of freshly harvested PC-3 cells (7 × 10^6 per animal) in PBS. Four weeks after, well palpable solid tumors were developed and the animals were randomly assigned in groups of four.
Animals (19 ± 2 g at the day of the experiment) were injected through the tail vein with 100 μL solution of radiopeptide under evaluation (40 pmol, 100 kBq–1 h pi, 40 pmol, 700 kBq–3 h pi) in PBS containing 1% w/v BSA. Another group of animals received a bolus injection with the radioconjugate (40 pmol, 300 kBq) in addition of 4 nmol of NOTA-PEG2-RM26–1 h pi Block group. At specified time points, animals were euthanized, tissues/organs of interest and tumors were collected, weighted, and the radioactivity content of the samples was measured.
Statistical analysis for the biodistribution data was performed with GraphPad Prism 7, employing a two-way ANOVA test with Tuckey’s posthoc analysis.

[4] = 40 pmol, Activity in GI (gastrointestinal tract)
[5] = 40 pmol, Activity uptake in blood
[6] = 40 pmol, Activity uptake in kidneys
[7] = 40 pmol, Activity uptake in tumor
[8] = Activity in GI (gastrointestinal tract)

Molecule	Tumor/pancreas ratio [1]	SUV values for the pancreas [2]	tissue uptake dose at 1 h [3, 4] [%ID]	tissue uptake dose at 3 h [3, 4] [%ID]	tissue uptake dose at 1 h ([3]; 40 pmol, Activity in body) [%ID]	tissue uptake dose at 3 h ([3]; 40 pmol, Activity in body) [%ID]	tissue uptake at 1 h [3, 5] [%ID/g]	tissue uptake at 1 h [3, 6] [%ID/g]	tissue uptake at 1 h [3, 7] [%ID/g]	tissue uptake at 3 h [3, 7] [%ID/g]	tissue uptake dose at 1 h [3, 8] [%ID]	tissue uptake dose at 1 h ([3]; Activity in body) [%ID]
NOTA-PEG3-d-Phe-Gln-Trp-Ala-Val-Gly-His-Sta-Leu-NH2 [[^68Ga]Ga-NOTA-PEG3-RM26, GRPR-targeting radioconjugate tested in clinical trials]	over 1	2-fold lower	–	–	–	–	–	–	–	–	–	–
CC(C)C[C@H](NC(=O)C[C@H](O)[C@H](CC(C)C)NC(=O)[C@H](Cc1c[nH]cn1)NC(=O)CN(C)C(=O)[C@@H](NC(=O)[C@H](C)NC(=O)[C@H](Cc1c[nH]c2ccccc12)NC(=O)[C@H](CCC(N)=O)NC(=O)[C@@H](Cc1ccccc1)NC(=O)COCCOCCNC(=O)CCC(C(=O)O)N1CCN(CC(=O)O)CCN(CC(=O)O)CC1)C(C)C)C(N)=O (stereo partly drawn) [[^68Ga]Ga-NODAGA-PEG2-[Sar^11]RM26, metal not drawn]	–	–	2.5 ± 0.3	1.8 ± 0.7	3.8 ± 0.6	2.2 ± 0.9	< 1	< 5	17 ± 3	15 ± 3	1.6 ± 0.2	4 ± 3
DOTA-Pip-DPhe-Gln-Trp-Ala-Val-Gly-His-Sta-Leu-NH2 [[^68Ga]Ga-RM2, GRPR-targeting radioconjugate tested in clinical trials]	–	around 40	–	–	–	–	–	–	–	–	–	–
CC(C)C[C@H](NC(=O)C[C@H](O)[C@H](CC(C)C)NC(=O)[C@H](Cc1c[nH]cn1)NC(=O)CN(C)C(=O)[C@@H](NC(=O)[C@H](C)NC(=O)[C@H](Cc1c[nH]c2ccccc12)NC(=O)[C@H](CCC(N)=O)NC(=O)[C@@H](Cc1ccccc1)NC(=O)COCCOCCNC(=O)CN1CCN(CC(=O)O)CCN(CC(=O)O)CC1)C(C)C)C(N)=O [[^68Ga]Ga-NOTA-PEG2-[Sar^11]RM26, metal not drawn]	–	–	3 ± 0.4	2 ± 1	5 ± 0.2	2 ± 1	< 1	< 5	14 ± 3	13 ± 1	1.7 ± 0.2	4.1 ± 0.6
DOTA-p-aminomethylaniline-diglycolic acid-DPhe-Gln-Trp-Ala-Val-Gly-His-Leu-NHEt [[^68Ga]Ga-SB3, GRPR-targeting radioconjugate tested in clinical trials]	–	around 40	–	–	–	–	–	–	–	–	–	–
